± gives the uncertainty stated by the source.
Test: self-splicing fitness, log relative to wild type (ln ratio); higher = more splicing; Tetrahymena group I intron in knt gene, E. coli kanamycin selection, DiMSum; sequences stand for … in CUCUCU…GGAGGGAAAAGUUAUCAGGCAUGCACCUGGUAGCUAGUCUUUAAACCAAUAGAUUGCAUCGGUUUAAAAGGCAAGACCGUCAAAUUGCGGGAAAGGGGUCAACAGCCGUUCAGUACCAAGUCUCAGGGGAAACUUUGAGAUGGCCUUGCAAAGGGUAUGGUAAUAAGCUGACGGACAUGGUCCUAACCACGCAGCCAAGUCCUAAGUCAACAGAUCUUCUGUUGAUAUGGAUGCAGUUCACAGACUAAAUGUCGGUCGGGGAAGAUGUAUUCUUCUCAUAAGAUAUAGUCGGACCUCUCCUUAAUGGGAGCUAGCGGAUGAAGUGAUGCAACACUGGAGCCGCUGGGAACUAAUUUGUAUGCGAAAGUAUAUUGAUUAGUUUUGGAGUACUCGUGGUCG
In short: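 Fitness was computed with DiMSum as the error-weighted combination of replicate fold changes, kanamycin versus none, each normalised to wild type. The library randomised all eight intron nucleotides of the P1ex region, with the intron placed in the knt kanamycin-resistance gene on pET-22b(+) in E. coli BL21(DE3). Six replicate transformations were grown overnight at 37°C or 30°C on LB agar with or without 25 μg/mL kanamycin, plus 100 μg/mL carbenicillin, 50 μM IPTG and 0.2% rhamnose. Pooled colonies were amplicon-sequenced on an Illumina HiSeq 2500.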

Sequence | self-splicing fitness (ln) (30 °C) | self-splicing fitness (ln) (37 °C)
CCUAAGCAAUAUUACGGUAA | -2.48 ± 0.24 | -2.73 ± 0.25
UCAAAGCAAUAUUACGGCAU | -2.94 ± 0.14 | -2.75 ± 0.14
ACUGAGCAAUAUUACGGUAU | -3.55 ± 0.18 | -3.17 ± 0.26
CAUGAGCAAUAUUACGAGAC | -3.32 ± 0.32 | -1.35 ± 0.3
GGACAGCAAUAUUACGAUAA | -1.81 ± 0.073 | -0.876 ± 0.08
GAGUAGCAAUAUUACGAACC | -1.17 ± 0.12 | -0.433 ± 0.14
GUUAAGCAAUAUUACGGGGA | -3.04 ± 0.37 | -2.15 ± 0.47
UGGAAGCAAUAUUACGCCAU | -3.64 ± 0.28 | -2.07 ± 0.36
AGUCAGCAAUAUUACGGCGG | -0.596 ± 0.1 | -0.561 ± 0.12
CCAGAGCAAUAUUACGGAUU | -3.05 ± 0.15 | -2.38 ± 0.16
UAGUAGCAAUAUUACGCUUA | -1.15 ± 0.14 | -0.806 ± 0.13
UACUAGCAAUAUUACGUUGU | -2.48 ± 0.17 | -2.21 ± 0.17
CUUCAGCAAUAUUACGCGAU | -2.85 ± 0.32 | -1.19 ± 0.38
GGGUAGCAAUAUUACGUGGC | – | -2.64 ± 0.33
UCGUAGCAAUAUUACGCCUA | -0.658 ± 0.13 | 0.291 ± 0.11
GCCAAGCAAUAUUACGAGAG | -2.88 ± 0.34 | -1.53 ± 0.22
CAAAAGCAAUAUUACGCUUG | -3.3 ± 0.15 | -2.35 ± 0.19
GACUAGCAAUAUUACGUCAC | -3.36 ± 0.4 | –
AUGUAGCAAUAUUACGCUAA | -1.75 ± 0.12 | -0.814 ± 0.13
GCUAAGCAAUAUUACGUCCA | -1.94 ± 0.32 | -0.684 ± 0.23
ACCUAGCAAUAUUACGUGCA | -2.89 ± 0.12 | -1.25 ± 0.1
UCAUAGCAAUAUUACGUAUC | -4.44 ± 0.33 | -3.23 ± 0.24
GAGAAGCAAUAUUACGCAGG | -2.26 ± 0.16 | -2.91 ± 0.2
UGUAAGCAAUAUUACGAUGU | -3.26 ± 0.15 | -1.93 ± 0.21
AAUAAGCAAUAUUACGUGAU | -2.97 ± 0.14 | -1.23 ± 0.12
CAGUAGCAAUAUUACGUGUU | -3.39 ± 0.22 | -2.78 ± 0.19

Sequence | self-splicing fitness (ln) (30 °C) | self-splicing fitness (ln) (37 °C)
CGGCAGCAAUAUUACGGCAA | -1.1 ± 0.083 | -1.27 ± 0.1
CUAUAGCAAUAUUACGGACA | -2.77 ± 0.22 | -1.1 ± 0.29
GCAAAGCAAUAUUACGCUAC | -2.2 ± 0.16 | -2.09 ± 0.26
GAAUAGCAAUAUUACGCCUA | -0.724 ± 0.13 | -0.0436 ± 0.16
GGUAAGCAAUAUUACGGUAG | -3.72 ± 0.19 | -3.15 ± 0.23
AGUGAGCAAUAUUACGAGUU | -2.21 ± 0.18 | -1.28 ± 0.18
GGCAAGCAAUAUUACGUAGC | -2.4 ± 0.33 | -2.24 ± 0.32
CUACAGCAAUAUUACGAGCC | -2.24 ± 0.24 | -1.88 ± 0.31
CGUCAGCAAUAUUACGUACU | -0.663 ± 0.1 | -0.361 ± 0.12
GGCAAGCAAUAUUACGGGGG | -2.86 ± 0.16 | -2.54 ± 0.22
ACCAAGCAAUAUUACGCAAA | -1.56 ± 0.12 | -1.74 ± 0.15
GUACAGCAAUAUUACGCUAA | -2.37 ± 0.14 | -0.948 ± 0.11
GAAGAGCAAUAUUACGAAUA | – | -1.63 ± 0.35
UUUUAGCAAUAUUACGUCAU | -3 ± 0.28 | -1.47 ± 0.29
GGUCAGCAAUAUUACGAGAU | -2.39 ± 0.14 | -2.31 ± 0.23
ACCAAGCAAUAUUACGAGGC | -3.14 ± 0.14 | -2.32 ± 0.22
UUCGAGCAAUAUUACGAAGC | -2.63 ± 0.33 | -1.91 ± 0.36
GUACAGCAAUAUUACGAGGA | -3.11 ± 0.29 | -1.88 ± 0.23
AAGUAGCAAUAUUACGCGAG | -1.74 ± 0.11 | -0.889 ± 0.13
CCCCAGCAAUAUUACGUAUG | -3.71 ± 0.15 | -1.96 ± 0.13
AAACAGCAAUAUUACGCUUC | -3.6 ± 0.26 | -2.35 ± 0.21
CGCGAGCAAUAUUACGUUCA | -2.43 ± 0.19 | -1.5 ± 0.17
UAGUAGCAAUAUUACGGGCU | -1.39 ± 0.2 | -2.47 ± 0.27
GUCCAGCAAUAUUACGAGCG | -2.31 ± 0.14 | -0.864 ± 0.15
CACCAGCAAUAUUACGUCCU | -3.31 ± 0.13 | -1.87 ± 0.14
CCGCAGCAAUAUUACGCGUC | -3 ± 0.13 | -3.01 ± 0.23

Sequence | self-splicing fitness (ln) (30 °C) | self-splicing fitness (ln) (37 °C)
UUUGAGCAAUAUUACGGUAA | -2.38 ± 0.29 | -1.94 ± 0.25
CCCUAGCAAUAUUACGUGGA | -1.42 ± 0.094 | -0.882 ± 0.093
UGUCAGCAAUAUUACGCACU | -1.07 ± 0.087 | -0.0217 ± 0.12
ACCGAGCAAUAUUACGAUGC | -1.97 ± 0.14 | -1.56 ± 0.14
ACCUAGCAAUAUUACGCGUC | -2.91 ± 0.27 | -0.412 ± 0.14
ACGCAGCAAUAUUACGCCAU | -2.86 ± 0.17 | -2.05 ± 0.17
CCCCAGCAAUAUUACGUCAG | -2.54 ± 0.14 | -1.36 ± 0.15
GUCAAGCAAUAUUACGUGGU | -4.8 ± 0.3 | -3.09 ± 0.16
UGCGAGCAAUAUUACGCUGC | -3.09 ± 0.25 | -2.31 ± 0.29
GACAAGCAAUAUUACGUUGA | -2.14 ± 0.09 | -1.48 ± 0.12
UGUUAGCAAUAUUACGGGUG | -0.781 ± 0.071 | -0.441 ± 0.086
UUAUAGCAAUAUUACGUGGA | -2.5 ± 0.41 | -1.23 ± 0.22
CGUCAGCAAUAUUACGACGA | -1.34 ± 0.2 | -1.2 ± 0.21
AUACAGCAAUAUUACGUGAC | -1.57 ± 0.095 | -0.945 ± 0.13
CGCAAGCAAUAUUACGGCAC | -2.32 ± 0.21 | -1.29 ± 0.3
UCAUAGCAAUAUUACGGACU | -2.63 ± 0.18 | -3.18 ± 0.43
UUCCAGCAAUAUUACGCAAC | -3.02 ± 0.44 | –
UAACAGCAAUAUUACGACGG | -1.27 ± 0.085 | -0.26 ± 0.11
UAUAAGCAAUAUUACGGAGC | – | -2.14 ± 0.28
CGUCAGCAAUAUUACGCCAA | -3.6 ± 0.3 | -1.73 ± 0.18
UACGAGCAAUAUUACGUCCG | -2.29 ± 0.13 | -1.25 ± 0.17
GGCUAGCAAUAUUACGCCAU | -2.23 ± 0.22 | –
UGACAGCAAUAUUACGAGAA | – | -2.33 ± 0.29
GACAAGCAAUAUUACGGCAC | 0.362 ± 0.075 | -0.214 ± 0.11
CGCCAGCAAUAUUACGUAGU | -2.67 ± 0.1 | -1.18 ± 0.11
CCGUAGCAAUAUUACGUCAC | -1.02 ± 0.27 | –

— the supplement of paper PMC7877785
